Reference: patent US20250011456A1 (VILLANELLE LIFE SCIENCE, published 2025)

B1: Antibody No. D6DD3D003 (HU1127-hVH2/hVL1) (antibody, human IgG1, kappa)
heavy: not shown
light: EIVLTQSPATLSLSPGERATLSCRASESVDSYVNSFLHWYQQKPGQAPRLLIYRASNLQSGIPARFSGSGSRTDFTLTISSLEPEDVAVYYCQQSNEDPYTFGQGTKLEIKRTVAAPSVFIFPPSDEQLKSGTASVVCLLNNFYPREAKVQWKVDNALQSGNSQESVTEQDSKDSTYSLSSTLTLSKADYEKHKVYACEVTHQGLSSPVTKSFNRGEC
notes: Humanized IgG1 (hFc)
B2: Antibody No. D6DD3D002 (HU1127-hVH1/hVL1) (antibody, human IgG1, kappa, V domains shown)
VH: QVQLQESGPGLVKPSQTLSLTCTVSGGSISSDSAWNWIRQHPGKGLEWIGYISYSGSTSYNPSLKSRVTISRDTSKNQFSLKLSSVTAADTAVYYCVRGLRFAYWGQGTLVTVSS
VL: EIVLTQSPATLSLSPGERATLSCRASESVDSYVNSFLHWYQQKPGQAPRLLIYRASNLQSGIPARFSGSGSRTDFTLTISSLEPEDVAVYYCQQSNEDPYTFGQGTKLEIKR
notes: Humanized IgG1 (hFc)
B3: Antibody No. D6DD3D004 (HU1127-hVH3/hVL1) (antibody, human IgG1, kappa)
heavy: not shown
light: EIVLTQSPATLSLSPGERATLSCRASESVDSYVNSFLHWYQQKPGQAPRLLIYRASNLQSGIPARFSGSGSRTDFTLTISSLEPEDVAVYYCQQSNEDPYTFGQGTKLEIKRTVAAPSVFIFPPSDEQLKSGTASVVCLLNNFYPREAKVQWKVDNALQSGNSQESVTEQDSKDSTYSLSSTLTLSKADYEKHKVYACEVTHQGLSSPVTKSFNRGEC
notes: Humanized IgG1 (hFc)
B4: Antibody No. D6DD3D005 (HU1127-hVH4/hVL1) (antibody, human IgG1, kappa)
heavy: not shown
light: EIVLTQSPATLSLSPGERATLSCRASESVDSYVNSFLHWYQQKPGQAPRLLIYRASNLQSGIPARFSGSGSRTDFTLTISSLEPEDVAVYYCQQSNEDPYTFGQGTKLEIKRTVAAPSVFIFPPSDEQLKSGTASVVCLLNNFYPREAKVQWKVDNALQSGNSQESVTEQDSKDSTYSLSSTLTLSKADYEKHKVYACEVTHQGLSSPVTKSFNRGEC
notes: Humanized IgG1 (hFc)
B5: Antibody No. D6DD3D006 (HU1127-hVH5/hVL1) (antibody, human IgG1, kappa)
heavy: not shown
light: EIVLTQSPATLSLSPGERATLSCRASESVDSYVNSFLHWYQQKPGQAPRLLIYRASNLQSGIPARFSGSGSRTDFTLTISSLEPEDVAVYYCQQSNEDPYTFGQGTKLEIKRTVAAPSVFIFPPSDEQLKSGTASVVCLLNNFYPREAKVQWKVDNALQSGNSQESVTEQDSKDSTYSLSSTLTLSKADYEKHKVYACEVTHQGLSSPVTKSFNRGEC
notes: Humanized IgG1 (hFc)
B6: Antibody No. D6DD3D008 (HU1127-hVH2/hVL2) (antibody, human IgG1, kappa)
heavy: not shown
light: DIVLTQSPDSLAVSLGERATINCRASESVDSYVNSFLHWYQQKPGQPPKLLIYRASNLQSGVPDRFSGSGSRTDFTLTISSLQAEDVAVYYCQQSNEDPYTFGQGTKLEIKRTVAAPSVFIFPPSDEQLKSGTASVVCLLNNFYPREAKVQWKVDNALQSGNSQESVTEQDSKDSTYSLSSTLTLSKADYEKHKVYACEVTHQGLSSPVTKSFNRGEC
notes: Humanized IgG1 (hFc)
B7: Antibody No. D6DD3D007 (HU1127-hVH1/hVL2) (antibody, human IgG1, kappa, V domains shown)
VH: QVQLQESGPGLVKPSQTLSLTCTVSGGSISSDSAWNWIRQHPGKGLEWIGYISYSGSTSYNPSLKSRVTISRDTSKNQFSLKLSSVTAADTAVYYCVRGLRFAYWGQGTLVTVSS
VL: DIVLTQSPDSLAVSLGERATINCRASESVDSYVNSFLHWYQQKPGQPPKLLIYRASNLQSGVPDRFSGSGSRTDFTLTISSLQAEDVAVYYCQQSNEDPYTFGQGTKLEIKR
notes: Humanized IgG1 (hFc)
B8: Antibody No. D6DD3D009 (HU1127-hVH3/hVL2) (antibody, human IgG1, kappa)
heavy: not shown
light: DIVLTQSPDSLAVSLGERATINCRASESVDSYVNSFLHWYQQKPGQPPKLLIYRASNLQSGVPDRFSGSGSRTDFTLTISSLQAEDVAVYYCQQSNEDPYTFGQGTKLEIKRTVAAPSVFIFPPSDEQLKSGTASVVCLLNNFYPREAKVQWKVDNALQSGNSQESVTEQDSKDSTYSLSSTLTLSKADYEKHKVYACEVTHQGLSSPVTKSFNRGEC
notes: Humanized IgG1 (hFc)
B9: Antibody No. D6DD3D010 (HU1127-hVH4/hVL2) (antibody, human IgG1, kappa)
heavy: not shown
light: DIVLTQSPDSLAVSLGERATINCRASESVDSYVNSFLHWYQQKPGQPPKLLIYRASNLQSGVPDRFSGSGSRTDFTLTISSLQAEDVAVYYCQQSNEDPYTFGQGTKLEIKRTVAAPSVFIFPPSDEQLKSGTASVVCLLNNFYPREAKVQWKVDNALQSGNSQESVTEQDSKDSTYSLSSTLTLSKADYEKHKVYACEVTHQGLSSPVTKSFNRGEC
notes: Humanized IgG1 (hFc)
B10: Antibody No. D6DD3D011 (HU1127-hVH5/hVL2) (antibody, human IgG1, kappa)
heavy: not shown
light: DIVLTQSPDSLAVSLGERATINCRASESVDSYVNSFLHWYQQKPGQPPKLLIYRASNLQSGVPDRFSGSGSRTDFTLTISSLQAEDVAVYYCQQSNEDPYTFGQGTKLEIKRTVAAPSVFIFPPSDEQLKSGTASVVCLLNNFYPREAKVQWKVDNALQSGNSQESVTEQDSKDSTYSLSSTLTLSKADYEKHKVYACEVTHQGLSSPVTKSFNRGEC
notes: Humanized IgG1 (hFc)
B11: Antibody No. D6DD3D013 (HU1127-hVH2/hVL3) (antibody, human IgG1, kappa)
heavy: not shown
light: DIQLTQSPSSLSASVGDRVTITCRASESVDSYVNSFLHWYQQKPGKAPKLLIYRASNLQSGVPSRFSGSGSRTDFTLTISSLQPEDVATYYCQQSNEDPYTFGQGTKLEIKRTVAAPSVFIFPPSDEQLKSGTASVVCLLNNFYPREAKVQWKVDNALQSGNSQESVTEQDSKDSTYSLSSTLTLSKADYEKHKVYACEVTHQGLSSPVTKSFNRGEC
notes: Humanized IgG1 (hFc)
B12: Antibody No. D6DD3D012 (HU1127-hVH1/hVL3) (antibody, human IgG1, kappa, V domains shown)
VH: QVQLQESGPGLVKPSQTLSLTCTVSGGSISSDSAWNWIRQHPGKGLEWIGYISYSGSTSYNPSLKSRVTISRDTSKNQFSLKLSSVTAADTAVYYCVRGLRFAYWGQGTLVTVSS
VL: DIQLTQSPSSLSASVGDRVTITCRASESVDSYVNSFLHWYQQKPGKAPKLLIYRASNLQSGVPSRFSGSGSRTDFTLTISSLQPEDVATYYCQQSNEDPYTFGQGTKLEIKR
notes: Humanized IgG1 (hFc)
B13: Antibody No. D6DD3D014 (HU1127-hVH3/hVL3) (antibody, human IgG1, kappa)
heavy: not shown
light: DIQLTQSPSSLSASVGDRVTITCRASESVDSYVNSFLHWYQQKPGKAPKLLIYRASNLQSGVPSRFSGSGSRTDFTLTISSLQPEDVATYYCQQSNEDPYTFGQGTKLEIKRTVAAPSVFIFPPSDEQLKSGTASVVCLLNNFYPREAKVQWKVDNALQSGNSQESVTEQDSKDSTYSLSSTLTLSKADYEKHKVYACEVTHQGLSSPVTKSFNRGEC
notes: Humanized IgG1 (hFc); Parent of the PTM-site-removed antibodies MPDDAD001-005
B14: Antibody No. D6DD3D015 (HU1127-hVH4/hVL3) (antibody, human IgG1, kappa)
heavy: not shown
light: DIQLTQSPSSLSASVGDRVTITCRASESVDSYVNSFLHWYQQKPGKAPKLLIYRASNLQSGVPSRFSGSGSRTDFTLTISSLQPEDVATYYCQQSNEDPYTFGQGTKLEIKRTVAAPSVFIFPPSDEQLKSGTASVVCLLNNFYPREAKVQWKVDNALQSGNSQESVTEQDSKDSTYSLSSTLTLSKADYEKHKVYACEVTHQGLSSPVTKSFNRGEC
notes: Humanized IgG1 (hFc)
B15: Antibody No. D6DD3D016 (HU1127-hVH5/hVL3) (antibody, human IgG1, kappa)
heavy: not shown
light: DIQLTQSPSSLSASVGDRVTITCRASESVDSYVNSFLHWYQQKPGKAPKLLIYRASNLQSGVPSRFSGSGSRTDFTLTISSLQPEDVATYYCQQSNEDPYTFGQGTKLEIKRTVAAPSVFIFPPSDEQLKSGTASVVCLLNNFYPREAKVQWKVDNALQSGNSQESVTEQDSKDSTYSLSSTLTLSKADYEKHKVYACEVTHQGLSSPVTKSFNRGEC
notes: Humanized IgG1 (hFc)
B16: Antibody No. MPDDAD001 (HU1127-hVH3/hVL3-1) (antibody, IgG1, V domains shown)
VH: QLQLQESGPGLVKPSETLSLTCTVSGGSISSDSAWNWIRQPPGKGLEWIGYISYSGSTSYNPSLKSRVTISRDTSKNQFSLKLSSVTAADTAVYYCVRGLRFAYWGQGTLVTVSS
VL: DIQLTQSPSSLSASVGDRVTITCRASESVDSYVDSFLHWYQQKPGKAPKLLIYRASNLQSGVPSRFSGSGSRTDFTLTISSLQPEDVATYYCQQSNEDPYTFGQGTKLEIK
notes: D6DD3D014 with the light chain PTM site NS (VL amino acids 34, 35) changed to DS; Tested as a recombinant antibody with hFc tag, 144 kDa

molecular target: T1, Recombinant Human CD14/His Protein (B294801) (human, UniProt P08571 20-352, limits assumed); assay: SPR (Biacore 8K), antibody captured on Protein A chip, CD14-His analyte 0.78125-25 nM, 1:1 binding
T1 construct: Bought His-tagged recombinant human CD14; also called recombinant human CD14 antigen; CD14 antigen; not shown: histidine tag
T1 sequence (looked up): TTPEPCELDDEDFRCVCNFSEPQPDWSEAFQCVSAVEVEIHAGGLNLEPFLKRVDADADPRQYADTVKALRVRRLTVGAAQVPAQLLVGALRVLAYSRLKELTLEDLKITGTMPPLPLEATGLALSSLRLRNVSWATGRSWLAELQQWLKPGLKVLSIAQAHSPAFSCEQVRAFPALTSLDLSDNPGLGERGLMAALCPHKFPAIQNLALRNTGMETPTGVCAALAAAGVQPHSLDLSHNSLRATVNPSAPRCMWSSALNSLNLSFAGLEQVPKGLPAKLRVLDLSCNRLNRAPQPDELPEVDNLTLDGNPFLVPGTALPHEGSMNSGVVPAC
Method: The Biacore 8K platform was used to test the kinetic and affinity properties of the antibody. The operation was carried out according to the system instructions and indications.
15 humanized antibodies (numbered D6DD3D002-D6DD3D0016) and 1 mouse antibody (number D6DD3D001) were tested. […] The capture concentration was 1 μg/mL. In Table 8-3, the change factor is the ratio of the equilibrium dissociation constant KD of the humanized to mouse antibody, and reflects the change in affinity after humanization.

Binder | Change Factor (KD relative to mouse antibody D6DD3D001) | Kd | koff | kon
B1 | 3.34 | 1.62 nM | 0.00295 s⁻¹ | 1.82e+06 M⁻¹ s⁻¹
B2 | 3.57 | 1.73 nM | 0.00292 s⁻¹ | 1.69e+06 M⁻¹ s⁻¹
B3 | 4.1 | 1.99 nM | 0.00326 s⁻¹ | 1.64e+06 M⁻¹ s⁻¹
B4 | 1.09 | 0.529 nM | 0.000798 s⁻¹ | 1.51e+06 M⁻¹ s⁻¹
B5 | 1.24 | 0.602 nM | 0.000862 s⁻¹ | 1.43e+06 M⁻¹ s⁻¹
B6 | 3.24 | 1.57 nM | 0.00329 s⁻¹ | 2.09e+06 M⁻¹ s⁻¹
B7 | 3.34 | 1.62 nM | 0.00342 s⁻¹ | 2.11e+06 M⁻¹ s⁻¹
B8 | 3.9 | 1.89 nM | 0.00379 s⁻¹ | 2.01e+06 M⁻¹ s⁻¹
B9 | 1.14 | 0.555 nM | 0.00105 s⁻¹ | 1.9e+06 M⁻¹ s⁻¹
B10 | 1.32 | 0.639 nM | 0.00109 s⁻¹ | 1.71e+06 M⁻¹ s⁻¹
B11 | 3.32 | 1.61 nM | 0.00282 s⁻¹ | 1.76e+06 M⁻¹ s⁻¹
B12 | 3.69 | 1.79 nM | 0.00293 s⁻¹ | 1.64e+06 M⁻¹ s⁻¹
B13 | 3.71 | 1.8 nM | 0.00318 s⁻¹ | 1.77e+06 M⁻¹ s⁻¹
B14 | 1.1 | 0.532 nM | 0.000843 s⁻¹ | 1.59e+06 M⁻¹ s⁻¹
B15 | 1.39 | 0.672 nM | 0.000904 s⁻¹ | 1.35e+06 M⁻¹ s⁻¹

molecular target: T1, Recombinant Human CD14/His Protein …; assay: SPR (Biacore 8K), antibody captured (1 ug/mL) on Protein A chip, CD14-His analyte 0.1953125-25 nM, 1:1 binding
Method: The Biacore 8K platform was used to test the kinetic and affinity properties of the antibody, operating according to system instructions and indications.
Results of Affinity Detection. The affinity of the six antibodies was measured at saturation concentration. […] Change factor is described above.

Binder | Change Factor (KD relative to mouse antibody D6DD3D001) | Kd | koff | kon
B16 | 8.66 | 7.48 nM | 0.00633 s⁻¹ | 847000 M⁻¹ s⁻¹
